What all share (experiment): SPR
In general terms: Surface plasmon resonance follows binding to a sensor surface in real time, without labels.

The target of assay [1] is ZNRF3-A10.
The target in assay [2] is RNF130-A1.
The target in assay [3] is RNF43-A7.

Usually Kd stands for the constant that tells how readily two partners part at equilibrium.

B1: human ZNRF3 extracellular domain (domain or fragment)
chain: KETAFVEVVLFESSPSGDYTTYTTGLTGRFSRAGATLSAEGEIVQMHPLGLCNNNDEEDLYEYGWVGVVKLEQPELDPKPCLTVLGKAKRAVQRGATAVIFDVSENPEAIDQLNQGSEDPLKRPVVYVKGADAIKLMNIVNKQKVARARIQHRPPRQPTEYFDM
modifications: biotinylated (BirA ligase)
In assay [1], B1 yielded a Kd of 0.7 nM.

B2: human RNF130 (GOLIATH) extracellular domain (domain or fragment)
chain: DNASQEYYTALINVTVQEPGRGAPLTFRIDRGRYGLDSPKAEVRGQVLAPLPLHGVADHLGCDPQTRFFVPPNIKQWIALLQRGNCTFKEKISRAAFHNAVAVVIYNNKSKEEPVTMTHPGTGDIIAVMITELRGKDILSYLEKNISVQMTIAVGTRMPPKNFSRGS
modifications: biotinylated (BirA ligase)
B2 registered a Kd in assay [2] of 8.2 nM. This counts as single-digit nanomolar.

B3: human RNF43 extracellular domain (domain or fragment)
chain: GFGRTGLVLAAAVESERSAEQKAIIRVIPLKMDPTGKLNLTLEGVFAGVAEITPAEGKLMQSHPLYLCNASDDDNLEPGFISIVKLESPRRAPRPCLSLASKARMAGERGASAVLFDITEDRAAAEQLQQPLGLTWPVVLIWGNDAEKLMEFVYKNQKAHVRIELKEPPAWPDY
modifications: biotinylated (BirA ligase)
The molecule B3 returned a Kd in assay [3] of 3.8 nM.

The values are drawn from paper PMC10127277 (2023).
